Measurements from patent publication US20130022601A1 (Hoffmann-La Roche, published 2013).

What was measured:
Her3 (ErbB3) receptor = target: T1, Her3 (ErbB3) receptor (human, UniProt P21860 20-1342); assay: flow cytometry on A431 cells, PE-coupled anti-human Fc secondary antibody
T1 construct: whole, on cells; Endogenous receptor on human cancer cell lines
Procedure: (§1) A431 were detached and counted. 1.5×10e5 cells were seeded per well of a conical 96-well plate. Cells were spun down (1500 rpm, 4° C., 5 min) and incubated for 30 min on ice in 50 μL of a dilution series of the respective bispecific antibody in PBS with 2% FCS (fetal calf serum). Cells were again spun down and washed once with 200 μL PBS containing 2% FCS followed by a second incubation of 30 min with a phycoerythrin-coupled antibody directed against human Fc which was diluted in PBS containing 2% FCS (Jackson Immunoresearch, 109116098). Cells were spun down washed twice with 200 μL PBS containing 2% FCS, resuspended in BD CellFix solution (BD Biosciences) and incubated for at least 10 min on ice. Mean fluorescence intensity (mfi) of the cells was determined by flow cytometry (FACS Canto, BD). Mfi was determined at least in duplicates of two independent stainings Flow cytometry spectra were further processed using the FlowJo software (TreeStar). Half-maximal binding was determined using XLFit 4.0 (IDBS) and the dose response one site model 205.
(§2) The binding properties of the bispecific antibodies to their respective receptor on the cell surface was analyzed on A431 cancer cells in a flow cytometry based assay. Cells were incubated with the mono- or bispecific primary antibodies and binding of these antibodies to their cognate receptors was detected with a secondary antibody coupled to a fluorophore binding specifically to the Fc of the primary antibody. The mean fluorescence intensity of a dilution series of the primary antibodies was plotted against the concentration of the antibody to obtain a sigmoidal binding curve. Cell surface expression of c-Met and Her3 was validated by incubation with the bivalent 5D5 and Her3 clone 29 antibody only. The Her3/c-Met_KHSS antibody readily binds to the cell surface of A431.

c-Met receptor = target: T2, c-Met receptor (human, UniProt P08581 25-1390); assay: as above
T2 construct: whole, on cells; Endogenous receptor on human cells
T2 sequence (P08581 25-1390): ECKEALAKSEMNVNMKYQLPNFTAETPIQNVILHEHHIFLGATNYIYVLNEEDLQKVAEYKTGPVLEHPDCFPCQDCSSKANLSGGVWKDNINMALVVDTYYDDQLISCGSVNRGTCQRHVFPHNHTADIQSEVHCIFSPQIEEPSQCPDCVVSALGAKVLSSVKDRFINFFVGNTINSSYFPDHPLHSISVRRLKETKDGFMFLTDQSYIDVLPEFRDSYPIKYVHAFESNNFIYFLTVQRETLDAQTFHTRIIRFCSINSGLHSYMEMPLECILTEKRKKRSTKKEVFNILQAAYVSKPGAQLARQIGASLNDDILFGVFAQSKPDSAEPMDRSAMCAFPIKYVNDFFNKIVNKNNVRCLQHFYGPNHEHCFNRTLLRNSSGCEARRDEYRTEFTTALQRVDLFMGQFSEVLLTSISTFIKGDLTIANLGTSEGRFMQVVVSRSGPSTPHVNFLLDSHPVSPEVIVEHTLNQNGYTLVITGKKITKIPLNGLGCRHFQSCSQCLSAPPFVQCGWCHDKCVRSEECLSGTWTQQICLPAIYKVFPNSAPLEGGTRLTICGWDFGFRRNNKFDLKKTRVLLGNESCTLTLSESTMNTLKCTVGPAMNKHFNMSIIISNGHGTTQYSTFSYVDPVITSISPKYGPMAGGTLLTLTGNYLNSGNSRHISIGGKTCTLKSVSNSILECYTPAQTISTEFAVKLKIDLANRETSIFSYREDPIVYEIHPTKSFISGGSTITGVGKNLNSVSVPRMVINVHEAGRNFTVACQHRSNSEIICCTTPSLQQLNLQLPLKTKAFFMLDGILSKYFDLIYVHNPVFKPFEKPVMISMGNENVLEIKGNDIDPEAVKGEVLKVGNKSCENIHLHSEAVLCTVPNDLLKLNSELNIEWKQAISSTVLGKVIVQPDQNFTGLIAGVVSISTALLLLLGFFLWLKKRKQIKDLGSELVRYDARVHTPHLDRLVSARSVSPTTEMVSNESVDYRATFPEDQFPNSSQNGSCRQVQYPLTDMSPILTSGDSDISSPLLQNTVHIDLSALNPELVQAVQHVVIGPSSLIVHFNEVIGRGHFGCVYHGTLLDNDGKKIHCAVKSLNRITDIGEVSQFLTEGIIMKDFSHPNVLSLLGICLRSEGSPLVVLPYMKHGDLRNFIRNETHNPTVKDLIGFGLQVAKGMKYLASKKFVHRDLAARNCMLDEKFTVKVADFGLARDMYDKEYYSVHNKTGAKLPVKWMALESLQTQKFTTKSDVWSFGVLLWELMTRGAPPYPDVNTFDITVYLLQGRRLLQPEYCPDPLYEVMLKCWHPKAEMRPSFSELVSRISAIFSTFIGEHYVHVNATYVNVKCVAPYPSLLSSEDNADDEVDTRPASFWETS
Procedure: as §1, §2

T1 sequence (P21860 20-1342): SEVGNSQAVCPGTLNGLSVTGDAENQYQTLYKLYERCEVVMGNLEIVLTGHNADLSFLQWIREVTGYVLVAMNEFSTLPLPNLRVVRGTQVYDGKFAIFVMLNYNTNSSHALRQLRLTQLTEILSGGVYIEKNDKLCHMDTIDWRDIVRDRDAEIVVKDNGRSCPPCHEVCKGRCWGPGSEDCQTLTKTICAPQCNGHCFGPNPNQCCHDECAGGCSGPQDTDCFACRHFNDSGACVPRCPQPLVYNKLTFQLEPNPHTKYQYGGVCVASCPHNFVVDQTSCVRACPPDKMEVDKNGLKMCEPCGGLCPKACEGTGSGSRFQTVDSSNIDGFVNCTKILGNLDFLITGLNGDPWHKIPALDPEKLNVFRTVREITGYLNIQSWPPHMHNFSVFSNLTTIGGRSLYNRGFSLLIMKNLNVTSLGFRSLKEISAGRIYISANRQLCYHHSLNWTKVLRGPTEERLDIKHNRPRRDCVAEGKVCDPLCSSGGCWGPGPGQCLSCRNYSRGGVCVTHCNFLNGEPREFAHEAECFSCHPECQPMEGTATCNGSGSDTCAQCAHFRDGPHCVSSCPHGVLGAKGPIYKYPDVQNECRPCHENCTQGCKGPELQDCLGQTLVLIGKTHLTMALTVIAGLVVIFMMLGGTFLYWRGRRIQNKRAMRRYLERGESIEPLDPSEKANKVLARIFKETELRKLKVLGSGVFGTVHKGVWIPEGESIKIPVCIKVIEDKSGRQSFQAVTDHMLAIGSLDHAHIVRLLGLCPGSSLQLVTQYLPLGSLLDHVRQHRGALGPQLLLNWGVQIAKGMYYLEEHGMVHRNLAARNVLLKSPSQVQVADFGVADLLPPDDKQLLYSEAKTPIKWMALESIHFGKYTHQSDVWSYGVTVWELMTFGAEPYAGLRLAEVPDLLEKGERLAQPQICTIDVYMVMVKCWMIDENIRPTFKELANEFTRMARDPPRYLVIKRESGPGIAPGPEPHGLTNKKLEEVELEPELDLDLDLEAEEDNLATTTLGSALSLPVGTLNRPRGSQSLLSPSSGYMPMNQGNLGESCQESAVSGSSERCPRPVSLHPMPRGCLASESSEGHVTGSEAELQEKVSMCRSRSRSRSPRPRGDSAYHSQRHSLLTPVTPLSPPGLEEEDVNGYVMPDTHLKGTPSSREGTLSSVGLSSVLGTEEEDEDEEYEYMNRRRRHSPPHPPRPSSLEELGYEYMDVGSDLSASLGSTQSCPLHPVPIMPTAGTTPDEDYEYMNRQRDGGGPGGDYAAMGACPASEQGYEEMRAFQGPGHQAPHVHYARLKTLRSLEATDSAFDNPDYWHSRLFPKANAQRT

Row | Binder | binding result (Her3 (ErbB3) receptor) | binding result (c-Met receptor)
1 | trivalent, bispecific <ErbB3-c-Met> antibody Her3/Met_KHSS (bispecific antibody, human IgG1, kappa, Full length Her3 clone 29 (chimeric) antibody with knobs-into-holes and CH3 disulfide mutations) heavy 1: not shown heavy 2: not shown light: DIQMTQTTSSLSASLGDRVTISCRARQDISNYLNWYQRKPDGTVKLLIYYTSRLHSGVPSRFSGSGSGTDYSLTISNLEQEDIATYFCQQGNTFPWTFGGGTKLEIKRTVAAPSVFIFPPSDEQLKSGTASVVCLLNNFYPREAKVQWKVDNALQSGNSQESVTEQDSKDSTYSLSSTLTLSKADYEKHKVYACEVTHQGLSSPVTKSFNRGEC | binds | –
2 | <ErbB3> HER3 clone 29 antibody (antibody, human IgG1, kappa, V domains shown, Bivalent parental antibody (chimeric), with unmodified heavy and light chains; also called parental Her3 clone29) VH: DVQLQESGPGLVKPSQSLSLTCSVTGYSITSAYYWNWIRQFPGNKLEWMGYISYGGSNSYAPSLKNRFSITRDTSKNQFFLKLNSVTTEDTATYYCARESDYAYFDYWGQGTTLTVSS VL: DIQMTQTTSSLSASLGDRVTISCRARQDISNYLNWYQRKPDGTVKLLIYYTSRLHSGVPSRFSGSGSGTDYSLTISNLEQEDIATYFCQQGNTFPWTFGGGTKLEIKR | binds | –
3 | <c-Met> Mab 5D5 (antibody, human IgG1, kappa, V domains shown, Bivalent 5D5 antibody (humanized), with unmodified heavy and light chains; also called bivalent 5D5; c-Met 5D5) VH: EVQLVESGGGLVQPGGSLRLSCAASGYTFTSYWLHWVRQAPGKGLEWVGMIDPSNSDTRFNPNFKDRFTISADTSKNTAYLQMNSLRAEDTAVYYCATYRSYVTPLDYWGQGTLVTVSS VL: DIQMTQSPSSLSASVGDRVTITCKSSQSLLYTSSQKNYLAWYQQKPGKAPKLLIYWASTRESGVPSRFSGSGSGTDFTLTISSLQPEDFATYYCQQYYAYPWTFGQGTKVEIKR | – | binds
